From patent US20190106502A1 come the findings set out here.

This test deals with CD20 (B-lymphocyte antigen CD20) (human) (UniProt P11836). As to the kind of experiment: cell-based or functional assay.
Chain of CD20 (B-lymphocyte antigen CD20) (human) (P11836 whole entry): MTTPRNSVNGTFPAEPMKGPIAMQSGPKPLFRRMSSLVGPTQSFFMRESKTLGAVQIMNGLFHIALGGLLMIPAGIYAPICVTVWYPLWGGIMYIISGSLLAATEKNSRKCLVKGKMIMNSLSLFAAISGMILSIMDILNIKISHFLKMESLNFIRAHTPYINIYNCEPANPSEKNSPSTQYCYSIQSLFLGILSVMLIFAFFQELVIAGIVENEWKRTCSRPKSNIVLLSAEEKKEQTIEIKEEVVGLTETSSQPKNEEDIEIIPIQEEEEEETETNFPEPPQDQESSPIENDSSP
“GA101-hinge del P329G L234A L235A (antibody)” showed an EC50 (ng/ml) values of direct cell death induction using Z-138 (% total AnnV positive cells) of 155 ng/mL.
As for “GA101-P151F P329G L234A L235A (antibody)”, the EC50 (ng/ml) values of direct cell death induction using Z-138 (% total AnnV positive cells) is 133 ng/mL.
Next, “GA101-V11F P151F hinge del (on GA101 P329G L234A L235A backbone) (antibody)”: 171 ng/mL; “GA101-V11F P151F (on GA101 P329G L234A L235A backbone) (antibody)”: 112 ng/mL.
Next, “GA101-P151F hin del (on GA101 P329G L234A L235A backbone) (antibody)”: 68.4 ng/mL; GA101-V11F P329G L234A L235A (antibody): 131 ng/mL.
